The source of these data is patent US20230312744A1, “Modulatory Substance of Tumor Immune Microenvironment, and Preventive, Diagnostic and/or Therapeutic Utilization of the Same” (The University Of Tokyo, priority 2020, published 2023).

The test system of one test is PMN-MDSCs in the TIME. In words: Flow cytometry of tumor-infiltrating cells from SL4 tumors (PMN-MDSCs in CD45+ cells). The test is classed as in vivo. Conditions: 55F3 200 μg/mouse i.p., Day 13 after transplantation, ratio of PMN-MDSCs to CD45+ cells, vs control IgG. As for the experimental part: In FIG. 13(a), SL4 cells (1×10^5 cells) were subcutaneously transplanted into C57BL/6 mice. The monoclonal antibody (55F3) (n=5) reacting against TCTP or control IgG (n=6) was intraperitoneally administered to the mice, every other day from one day after the transplantation (200 μg/mouse). The tumor volume was measured over time. In FIG. 13(b), on Day 13 after the transplantation, single cell suspensions were prepared from tumors, and were then subjected to a flow cytometry analysis (n=5). […] In FIG. 13(c), SL4 cells (1×10^5 cells) were subcutaneously transplanted into C57BL/6 mice (n=6). After the transplantation, DHA (50 mg/kg) was intraperitoneally […] into the mice every day. The tumor volume was measured over time. […] The tumor volume was measured over time. […] In FIG. 13(f), the amount of TCTP in sera derived from healthy subjects (people who are not affected with cancer) (n=5) and colorectal cancer patients (n=14) was quantified by immunoblotting. […] In FIG. 13 (g), (right view) the relative staining intensity by the anti-TCTP antibody was semi-quantified, and the staining intensity of the colorectal cancer tissues was compared with the staining intensity of the normal large intestinal tissues (n=45). […]
Tumor-infiltrating cells were recovered after subcutaneous transplantation of a tumor into mice, and were then analyzed by flow cytometry. […]
(In flow cytometry, cells or beads pass a laser one at a time.)

A further test relates to SL4 tumors. In words: Proliferation assay of subcutaneously transplanted SL4 tumor in C57BL/6 mice (tumor volume). Format: in vivo. Conditions: 200 μg/mouse intraperitoneally every other day from Day 1 after transplantation, vs control IgG, FIG. 13(a). The procedure:
In FIG. 13(a), SL4 cells (1×10^5 cells) were subcutaneously transplanted into C57BL/6 mice. The monoclonal antibody (55F3) (n=5) reacting against TCTP or control IgG (n=6) was intraperitoneally administered to the mice, every other day from one day after the transplantation (200 μg/mouse). The tumor volume was measured over time. In FIG. 13(b), on Day 13 after the transplantation, single cell suspensions were prepared from tumors, and were then subjected to a flow cytometry analysis (n=5). […] In FIG. 13(c), SL4 cells (1×10^5 cells) were subcutaneously transplanted into C57BL/6 mice (n=6). After the transplantation, DHA (50 mg/kg) was intraperitoneally […] into the mice every day. The tumor volume was measured over time. In FIG. 13(d), SL4 cells (1×10^5 cells) were subcutaneously transplanted into C57BL/6 mice (n=6). […] The tumor volume was measured over time. […] In FIG. 13(f), the amount of TCTP in sera derived from healthy subjects (people who are not affected with cancer) (n=5) and colorectal cancer patients (n=14) was quantified by immunoblotting. […] In FIG. 13 (g), (right view) the relative staining intensity by the anti-TCTP antibody was semi-quantified, and the staining intensity of the colorectal cancer tissues was compared with the staining intensity of the normal large intestinal tissues (n=45). […]

B1: 55F3: Mouse monoclonal antibody against human TCTP peptide SEQ ID NO: 25; CDRs SEQ ID NO: 1-6, VH SEQ ID NO: 19, VL SEQ ID NO: 22 (antibody, listed as Mus musculus)
VH: MRVLILLWLFTAFPGILSDVQLQESGPGLVKPSQSLSLTCTATGYSIASDYAWNWIRQFPGNKLEWMGYINYSGSTGYNPSLKSRISITRDTSKNQFFLQLNSVTTEDTATYYCARFEAGYWGQGTTLTVSSAKTTPPSVYPLAPGSAAQTNSMVTLGCLVKGYFPEPVT
VL: MDMRTPAQFLGILLLWFPGIKCDIKMTQSPSSMSASLGERVTITCKASQDINRYLSWFQQKPGKSPKTLIYRANRLVDGVPSRFSGSGSGQDYSLTISSLEYGDMGIYYCLQYNEFPLTFGAGTKLELKRADAAPTVSIFPPSSEQLTSGGASVVCFLN
Regarding B1, the “amount of PMN-MDSCs in the TIME” value with PMN-MDSCs in the TIME is listed as “decreased”. Further, the “proliferation speed of SL4 tumor cells (tumor volume)” value in the test with SL4 tumors is listed as “decreased”.
